# Reference: paper PMC9482650, “Quantitative fragmentomics allow affinity mapping of interactomes” (Nature Communications, 2022)
# T1: ARHGAP21, Q5T5U3
# T1 sequence (Q5T5U3 45-169, limits assumed, looked up): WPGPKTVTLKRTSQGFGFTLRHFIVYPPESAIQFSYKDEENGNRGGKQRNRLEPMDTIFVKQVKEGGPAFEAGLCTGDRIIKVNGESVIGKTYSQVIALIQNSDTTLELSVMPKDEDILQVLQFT
# T2: NHERF3_4, Q5T2W1
# T2 sequence (Q5T2W1 373-468, limits assumed, looked up): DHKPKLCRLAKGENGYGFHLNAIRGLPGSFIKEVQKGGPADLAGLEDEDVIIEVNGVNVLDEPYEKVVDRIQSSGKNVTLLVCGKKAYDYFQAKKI
# T3: SNTA1, Q13424
# T3 sequence (Q13424 82-180, limits assumed, looked up): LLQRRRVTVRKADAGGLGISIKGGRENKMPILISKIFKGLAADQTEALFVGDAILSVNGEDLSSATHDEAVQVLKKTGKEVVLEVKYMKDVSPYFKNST
# T4: MPP2, Q14168
# T4 sequence (Q14168 180-250, limits assumed, looked up): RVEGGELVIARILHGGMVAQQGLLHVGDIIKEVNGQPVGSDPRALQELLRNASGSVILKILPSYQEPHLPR
# T5: APBA2_1, Q99767
# T5 sequence (Q99767 563-664, limits assumed, looked up): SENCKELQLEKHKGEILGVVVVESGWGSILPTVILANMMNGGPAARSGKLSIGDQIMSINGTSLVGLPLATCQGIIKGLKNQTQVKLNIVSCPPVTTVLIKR
# T6: GRIP1_7, Q9Y3R0
# T6 sequence (Q9Y3R0 999-1096, limits assumed, looked up): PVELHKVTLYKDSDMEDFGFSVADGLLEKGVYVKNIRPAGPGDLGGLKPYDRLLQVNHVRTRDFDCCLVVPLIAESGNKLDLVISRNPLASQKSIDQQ
# T7: DFNB31_3, Q9P202
# T7 sequence (Q9P202 811-907, limits assumed, looked up): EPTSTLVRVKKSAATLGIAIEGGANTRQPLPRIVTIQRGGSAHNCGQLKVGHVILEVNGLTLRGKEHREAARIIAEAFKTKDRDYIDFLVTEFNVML
# T8: SNTG2, Q9NY99
# T8 sequence (Q9NY99 68-166, limits assumed, looked up): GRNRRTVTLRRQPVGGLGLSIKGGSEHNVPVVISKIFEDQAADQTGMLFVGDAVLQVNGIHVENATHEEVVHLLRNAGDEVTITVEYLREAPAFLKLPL
# T9: TIAM2, Q8IVF5
# T9 sequence (Q8IVF5 885-986, limits assumed, looked up): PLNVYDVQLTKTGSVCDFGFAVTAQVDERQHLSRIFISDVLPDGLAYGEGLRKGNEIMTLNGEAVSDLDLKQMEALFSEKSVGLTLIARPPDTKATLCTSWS
# T10: DFNB31_1, Q9P202
# T10 sequence (Q9P202 135-233, limits assumed, looked up): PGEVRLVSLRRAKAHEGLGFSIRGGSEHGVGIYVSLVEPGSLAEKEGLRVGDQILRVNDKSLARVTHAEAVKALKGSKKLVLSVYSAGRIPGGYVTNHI
# T11: RADIL, Q96JH8
# T11 sequence (Q96JH8 971-1071, limits assumed, looked up): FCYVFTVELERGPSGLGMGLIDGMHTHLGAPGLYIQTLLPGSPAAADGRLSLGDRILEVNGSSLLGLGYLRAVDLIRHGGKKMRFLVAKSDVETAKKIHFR
# T12: APBA1_2, Q02410
# T12 sequence (Q02410 742-832, limits assumed, looked up): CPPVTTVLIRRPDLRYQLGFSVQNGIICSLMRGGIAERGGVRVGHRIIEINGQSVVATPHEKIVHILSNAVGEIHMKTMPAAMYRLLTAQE
# T13: LNX2_2, Q8N448
# T13 sequence (Q8N448 334-432, limits assumed, looked up): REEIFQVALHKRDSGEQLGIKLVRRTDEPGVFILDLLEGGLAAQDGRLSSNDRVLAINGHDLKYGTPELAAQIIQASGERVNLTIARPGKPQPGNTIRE
# Tests used:
# Experiment in all cases: holdup assay
# Set-up in all cases: key: below the threshold = too weak to quantify, mostly under pKd 3.1 to 4
# [1] = molecular target: T1, ARHGAP21, Q5T5U3
# [2] = molecular target: T2, NHERF3_4, Q5T2W1
# [3] = molecular target: SCRIB_2, Q14160
# Chain of SCRIB_2, Q14160 (Q14160 857-960): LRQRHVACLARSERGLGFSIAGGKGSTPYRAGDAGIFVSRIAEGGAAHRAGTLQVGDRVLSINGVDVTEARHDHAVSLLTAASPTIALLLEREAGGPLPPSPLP
# [4] = molecular target: GRIP2_5, Q9C0E4
# Chain of GRIP2_5, Q9C0E4 (Q9C0E4 544-642): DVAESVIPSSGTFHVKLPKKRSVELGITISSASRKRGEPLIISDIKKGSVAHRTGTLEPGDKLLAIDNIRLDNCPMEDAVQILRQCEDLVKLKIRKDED
# [5] = molecular target: LDB3, O75112
# Chain of LDB3, O75112 (O75112 1-94): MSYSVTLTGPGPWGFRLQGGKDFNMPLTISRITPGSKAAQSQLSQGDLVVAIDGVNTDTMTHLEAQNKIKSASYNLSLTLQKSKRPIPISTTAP
# [6] = molecular target: T3, SNTA1, Q13424
# [7] = molecular target: T4, MPP2, Q14168
# [8] = molecular target: T5, APBA2_1, Q99767
# [9] = molecular target: T6, GRIP1_7, Q9Y3R0
# [10] = molecular target: DLG5_1, Q8TDM6
# Chain of DLG5_1, Q8TDM6 (Q8TDM6 617-713): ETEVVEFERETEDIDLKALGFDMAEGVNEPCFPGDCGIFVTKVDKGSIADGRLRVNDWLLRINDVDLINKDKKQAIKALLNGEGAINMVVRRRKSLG
# [11] = molecular target: IL16_3, Q14005
# Chain of IL16_3, Q14005 (Q14005 1107-1207): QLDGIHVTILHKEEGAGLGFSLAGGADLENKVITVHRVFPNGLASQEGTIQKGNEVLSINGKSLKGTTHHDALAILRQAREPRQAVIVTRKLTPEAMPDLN
# [12] = molecular target: MAST2, Q6P0Q8
# Chain of MAST2, Q6P0Q8 (Q6P0Q8 1099-1202): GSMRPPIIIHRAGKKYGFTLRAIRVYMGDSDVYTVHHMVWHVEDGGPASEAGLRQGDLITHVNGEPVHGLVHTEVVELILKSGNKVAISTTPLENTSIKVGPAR
# [13] = molecular target: T7, DFNB31_3, Q9P202
# [14] = molecular target: T8, SNTG2, Q9NY99
# [15] = molecular target: T9, TIAM2, Q8IVF5
# [16] = molecular target: T10, DFNB31_1, Q9P202
# [17] = molecular target: TJP1_3, Q07157
# Chain of TJP1_3, Q07157 (Q07157 416-512): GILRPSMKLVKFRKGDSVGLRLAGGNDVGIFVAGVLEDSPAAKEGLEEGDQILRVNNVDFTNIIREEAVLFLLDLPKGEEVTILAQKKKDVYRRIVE
# [18] = molecular target: GRIP2_7, Q9C0E4
# Chain of GRIP2_7, Q9C0E4 (Q9C0E4 934-1023): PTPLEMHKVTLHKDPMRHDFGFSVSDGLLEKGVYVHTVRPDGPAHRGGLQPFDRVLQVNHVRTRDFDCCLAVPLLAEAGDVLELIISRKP
# [19] = molecular target: SCRIB_1, Q14160
# Chain of SCRIB_1, Q14160 (Q14160 718-814): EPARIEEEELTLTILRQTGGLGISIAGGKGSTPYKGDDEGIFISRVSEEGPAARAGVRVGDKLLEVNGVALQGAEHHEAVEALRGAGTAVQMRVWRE
# [20] = molecular target: T11, RADIL, Q96JH8
# [21] = molecular target: T12, APBA1_2, Q02410
# [22] = molecular target: IL16_1, Q14005
# Chain of IL16_1, Q14005 (Q14005 210-306): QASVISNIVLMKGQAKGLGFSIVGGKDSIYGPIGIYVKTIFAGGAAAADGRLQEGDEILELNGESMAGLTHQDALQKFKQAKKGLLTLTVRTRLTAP
# [23] = molecular target: GORASP2, Q9H8Y8
# [24] = molecular target: DLG4_3, P78352
# Chain of DLG4_3, P78352 (P78352 306-403): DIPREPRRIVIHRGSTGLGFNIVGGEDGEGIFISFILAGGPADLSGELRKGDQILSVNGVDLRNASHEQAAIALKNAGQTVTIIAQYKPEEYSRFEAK
# [25] = molecular target: T13, LNX2_2, Q8N448
# [26] = plain residues with an end cap or a label only (N-terminal biotin on a linker: ttds)
# [27] = plain residues with an end cap or a label only (N-terminal biotin on a linker: ahx)
# [28] = plain residues with an end cap or a label only (N-terminal biotin on a linker: ado-ado)
binder,measurement,setting,value
"SVWLRKETRV [CYSLTR2, Q9NS75]",pKd,[1]; [26],below the threshold
same,pKd,[2]; [26],3.48
same,pKd,[3]; [26],4.42
same,pKd,[4]; [26],below the threshold
same,pKd,[5]; [26],below the threshold
same,pKd,[6]; [26],5.41
same,pKd,[7]; [26],below the threshold
same,pKd,[8]; [26],below the threshold
same,pKd,[9]; [26],3.77
same,pKd,[10]; [26],below the threshold
same,pKd,[11]; [26],below the threshold
same,pKd,[12]; [26],5.27
same,pKd,[13]; [26],below the threshold
same,pKd,[14]; [26],5.09
same,pKd,[15]; [26],below the threshold
same,pKd,[16]; [26],4.03
same,pKd,[17]; [26],below the threshold
same,pKd,[18]; [26],below the threshold
same,pKd,[19]; [26],4.28
same,pKd,[20]; [26],3.7
same,pKd,[21]; [26],3.84
same,pKd,[22]; [26],3.92
same,pKd,[23]; [26],4.01
same,pKd,[24]; [26],6.55
same,pKd,[25]; [26],3.77
"HTHSYIETHV [CNKSR2, Q8WXI2]",pKd,[1]; [27],below the threshold
same,pKd,[2]; [27],below the threshold
same,pKd,[3]; [27],5.31
same,pKd,[4]; [27],below the threshold
same,pKd,[5]; [27],below the threshold
same,pKd,[6]; [27],4.93
same,pKd,[7]; [27],below the threshold
same,pKd,[8]; [27],below the threshold
same,pKd,[9]; [27],below the threshold
same,pKd,[10]; [27],below the threshold
same,pKd,[11]; [27],below the threshold
same,pKd,[12]; [27],5.29
same,pKd,[13]; [27],below the threshold
same,pKd,[14]; [27],4.67
same,pKd,[15]; [27],3.81
same,pKd,[16]; [27],4.23
same,pKd,[17]; [27],below the threshold
same,pKd,[18]; [27],below the threshold
same,pKd,[19]; [27],5.64
same,pKd,[20]; [27],4.22
same,pKd,[21]; [27],4.16
same,pKd,[22]; [27],3.9
same,pKd,[23]; [27],below the threshold
same,pKd,[24]; [27],3.74
same,pKd,[25]; [27],3.99
"KRPEMTSSSV [MUC3B, MUC3A, Q02505;Q9H195]",pKd,[1]; [28],1.86
same,pKd,[2]; [28],below the threshold
same,pKd,[10]; [28],below the threshold
same,pKd,[14]; [28],3.9
same,pKd,[16]; [28],4.24
same,pKd,[19]; [28],below the threshold
same,pKd,[22]; [28],3.94
same,pKd,[25]; [28],below the threshold
"SRPQRTQTQV [HPV67-E6, A4U7F2]",pKd,[1]; [26],below the threshold
same,pKd,[2]; [26],below the threshold
same,pKd,[3]; [26],3.4
same,pKd,[4]; [26],below the threshold
same,pKd,[5]; [26],below the threshold
same,pKd,[6]; [26],3.94
same,pKd,[7]; [26],below the threshold
same,pKd,[8]; [26],below the threshold
same,pKd,[9]; [26],below the threshold
same,pKd,[10]; [26],below the threshold
same,pKd,[11]; [26],below the threshold
same,pKd,[12]; [26],5.27
same,pKd,[13]; [26],below the threshold
same,pKd,[14]; [26],3.98
same,pKd,[15]; [26],below the threshold
same,pKd,[16]; [26],below the threshold
same,pKd,[17]; [26],below the threshold
same,pKd,[18]; [26],below the threshold
same,pKd,[19]; [26],below the threshold
same,pKd,[20]; [26],below the threshold
same,pKd,[21]; [26],3.54
same,pKd,[22]; [26],below the threshold
same,pKd,[23]; [26],below the threshold
same,pKd,[24]; [26],4.23
same,pKd,[25]; [26],3.6
"KSRVAFFEEL [NF2, P35240]",pKd,[2]; [28],3.59
same,pKd,[4]; [28],3.54
same,pKd,[5]; [28],3.9
same,pKd,[8]; [28],3.54
same,pKd,[9]; [28],3.49
same,pKd,[14]; [28],3.74
same,pKd,[16]; [28],3.64
same,pKd,[19]; [28],3.64
same,pKd,[21]; [28],3.75
same,pKd,[22]; [28],3.5
same,pKd,[23]; [28],3.87
same,pKd,[24]; [28],3.52
"ERKLSSESQV [LRP4, O75096]",pKd,[1]; [26],below the threshold
same,pKd,[2]; [26],below the threshold
same,pKd,[3]; [26],3.66
same,pKd,[4]; [26],below the threshold
same,pKd,[5]; [26],below the threshold
same,pKd,[6]; [26],3.78
same,pKd,[7]; [26],below the threshold
same,pKd,[8]; [26],below the threshold
same,pKd,[9]; [26],below the threshold
same,pKd,[10]; [26],below the threshold
same,pKd,[11]; [26],below the threshold
same,pKd,[12]; [26],4.34
same,pKd,[13]; [26],below the threshold
same,pKd,[14]; [26],4.1
same,pKd,[15]; [26],below the threshold
same,pKd,[16]; [26],below the threshold
same,pKd,[17]; [26],below the threshold
same,pKd,[18]; [26],below the threshold
same,pKd,[19]; [26],3.63
same,pKd,[20]; [26],below the threshold
same,pKd,[21]; [26],below the threshold
same,pKd,[22]; [26],3.59
same,pKd,[23]; [26],4.39
same,pKd,[24]; [26],below the threshold
same,pKd,[25]; [26],below the threshold
"RSLEEEESQL [GRASP, Q7Z6J2]",pKd,[1]; [26],3.83
same,pKd,[2]; [26],below the threshold
same,pKd,[3]; [26],3.87
same,pKd,[4]; [26],below the threshold
same,pKd,[5]; [26],3.68
same,pKd,[6]; [26],below the threshold
same,pKd,[7]; [26],below the threshold
same,pKd,[8]; [26],below the threshold
same,pKd,[9]; [26],below the threshold
same,pKd,[10]; [26],below the threshold
same,pKd,[11]; [26],below the threshold
same,pKd,[12]; [26],5.6
same,pKd,[13]; [26],3.74
same,pKd,[14]; [26],below the threshold
same,pKd,[15]; [26],below the threshold
same,pKd,[16]; [26],3.86
same,pKd,[17]; [26],below the threshold
same,pKd,[18]; [26],below the threshold
same,pKd,[19]; [26],3.55
same,pKd,[20]; [26],3.53
same,pKd,[21]; [26],3.65
same,pKd,[22]; [26],below the threshold
same,pKd,[23]; [26],below the threshold
same,pKd,[24]; [26],3.75
same,pKd,[25]; [26],below the threshold
